Results taken from patent publication KR20240052776A (dated 2024).
Positions count from the first letter of the chain named.

Tests used:
Assay in all cases: flow cytometry, cell-based binding assay: yeast-displayed scFv with biotinylated MOG protein, streptavidin detection, anti-myc co-staining
[1] = target: T1, biotinylated mouse MOG-His (Uniprot Q61885), RND Systems (mouse, UniProt Q61885 29-156, limits assumed, biotinylated (site not stated))
T1 construct: A bought protein (RND Systems); also called 마우스 MOG-His; not shown: His tag
T1 sequence (looked up): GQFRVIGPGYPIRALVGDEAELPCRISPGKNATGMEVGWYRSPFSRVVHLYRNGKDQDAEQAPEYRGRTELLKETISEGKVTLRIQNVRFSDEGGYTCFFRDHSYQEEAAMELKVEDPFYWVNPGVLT

[2] = target: T2, biotinylated cynomolgus monkey MOG-FC protein (Q9BGS7), expressed in mammalian cells (cynomolgus monkey, UniProt Q9BGS7 30-154, limits assumed, biotinylated (site not stated))
T2 construct: also called cynomolgus MOG-Fc; 사이노몰거스 원숭이 MOG-FC; not shown: Fc part
T2 sequence (looked up): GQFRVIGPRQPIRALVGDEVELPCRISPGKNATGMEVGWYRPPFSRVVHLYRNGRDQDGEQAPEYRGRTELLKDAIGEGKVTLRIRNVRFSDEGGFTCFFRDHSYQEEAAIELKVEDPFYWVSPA

[3] = target: T3, biotinylated human MOG-His (Uniprot Q16653), RND Systems (human, UniProt Q16653 30-154, biotinylated (site not stated))
T3 construct: A bought protein (RND Systems); also called 인간 MOG-His; not shown: His tag
T3 sequence (looked up): T2 sequence (looked up) with Q10H, R55K, E60D, I111M, A125G

binding result [1]: binds | binding result [2]: binds | binding result [3]: binds
B1: anti-MOG scFv of the invention, displayed on yeast cells (MOG-CAR 발현 효모 세포) (scFv, V domains shown)
VH: QVQLVQSGAEVKKPGSSVKVSCKASGGTFSSYAFSWVRQAPGQGLEWMGRIVPVVGTPNYAQKFQGRVTITADESTSTAYMELSSLRSEDTAVYYCARERLYAGYYFDHWGQGTLVTVSS
VL: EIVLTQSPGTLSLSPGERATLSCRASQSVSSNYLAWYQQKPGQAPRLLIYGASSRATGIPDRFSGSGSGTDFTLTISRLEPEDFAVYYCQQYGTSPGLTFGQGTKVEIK
notes: also called MOG-CAR expressing yeast cells
